Experimental data: publication doi:10.1101/2023.01.19.524411 (bioRxiv, 2023)

Target: the molecule itself
Test: native gel or EMSA

B1: flag-tagged STING (stimulator of interferon genes) (natural protein, UniProt Q3TBT3 1-378, looked up)
chain: MPYSNLHPAIPRPRGHRSKYVALIFLVASLMILWVAKDPPNHTLKYLALHLASHELGLLLKNLCCLAEELCHVQSRYQGSYWKAVRACLGCPIHCMAMILLSSYFYFLQNTADIYLSWMFGLLVLYKSLSMLLGLQSLTPAEVSAVCEEKKLNVAHGLAWSYYIGYLRLILPGLQARIRMFNQLHNNMLSGAGSRRLYILFPLDCGVPDNLSVVDPNIRFRDMLPQQNIDRAGIKNRVYSNSVYEILENGQPAGVCILEYATPLQTLFAMSQDAKAGFSREDRLEQAKLFCRTLEEILEDVPESRNNCRLIVYQEPTDGNSFSLSQEVLRHIRQEEKEEVTMNAPMTSVAPPPSVLSQEPRLLISGMDQPLPLRTDLI
- stoichiometry N: 2
